Positions count from the first letter of the chain named. Numbers in names are those of the source.
T1: human IL-2Rβ (human, UniProt P14784 27-240, limits assumed)
T1 construct: also called hIL-2Rβ; IL-2 receptor beta
T1 sequence (looked up): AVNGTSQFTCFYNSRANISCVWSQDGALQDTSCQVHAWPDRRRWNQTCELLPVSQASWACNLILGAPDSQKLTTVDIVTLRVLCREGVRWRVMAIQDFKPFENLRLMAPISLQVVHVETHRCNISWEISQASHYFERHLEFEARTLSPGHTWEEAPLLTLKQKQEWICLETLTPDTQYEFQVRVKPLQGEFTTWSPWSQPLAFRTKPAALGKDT

B1: hIL-15 V49R/K11V (ligand)
chain: NWVNVISDLKVIEDLIQSMHIDATLYTESDVHPSCKVTAMKCFLLELQRISLESGDASIHDTVENLIILANNSLSSNGNVTESGCKECEELEEKNIKEFLQSFVHIVQMFINTGGGGSGHHHHHHHHGGGLNDIFEAQKIEWHE
B2: hIL-15 V49R/M109D (ligand)
chain: B1 chain with V11K, M109D
B3: hIL-15 V49R/N1S (ligand)
chain: B1 chain with N1S, V11K
B4: hIL-15 V49R/N1Q (ligand)
chain: B1 chain with N1Q, V11K
B5: hIL-15 V49R/L69I (ligand)
chain: B1 chain with V11K, L69I
B6: hIL-15 V49R/N4M (ligand)
chain: B1 chain with N4M, V11K
B7: hIL-15 V49R/Q108D (ligand)
chain: B1 chain with V11K, Q108D
B8: hIL-15 V49R/S7E (ligand)
chain: B1 chain with S7E, V11K
B9: hIL-15 V49R/N4E (ligand)
chain: B1 chain with N4E, V11K
B10: hIL-15 V49R/N65D (ligand)
chain: B1 chain with V11K, N65D
B11: hIL-15 V49R/N4W (ligand)
chain: B1 chain with N4W, V11K
B12: hIL-15 V49R/S7A (ligand)
chain: B1 chain with S7A, V11K
B13: hIL-15 V49R/N1K (ligand)
chain: B1 chain with N1K, V11K
B14: hIL-15 V49R/S7T (ligand)
chain: B1 chain with S7T, V11K
B15: hIL-15 V49R/N65K (ligand)
chain: B1 chain with V11K, N65K
B16: hIL-15 V49R/S7Q (ligand)
chain: B1 chain with S7Q, V11K
B17: hIL-15 V49R/S7G (ligand)
chain: B1 chain with S7G, V11K
B18: hIL-15 V49R/Q108K (ligand)
chain: B1 chain with V11K, Q108K
B19: hIL-15 V49R/L69E (ligand)
chain: B1 chain with V11K, L69E
B20: hIL-15 V49R/L69S (ligand)
chain: B1 chain with V11K, L69S
B21: hIL-15 V49R/N72K (ligand)
chain: B1 chain with V11K, N72K
B22: hIL-15 V49R/M109K (ligand)
chain: B1 chain with V11K, M109K
B23: hIL-15 V49R/Q108A (ligand)
chain: B1 chain with V11K, Q108A
B24: hIL-15 V49R/K11Y (ligand)
chain: B1 chain with V11Y
B25: hIL-15 V49R/S7R (ligand)
chain: B1 chain with S7R, V11K
B26: hIL-15 V49R/L69M (ligand)
chain: B1 chain with V11K, L69M
B27: hIL-15 V49R/N4D (ligand)
chain: B1 chain with N4D, V11K
B28: hIL-15 V49R/M109S (ligand)
chain: B1 chain with V11K, M109S
B29: hIL-15 V49R/N4A (ligand)
chain: B1 chain with N4A, V11K
B30: hIL-15 V49R/N1A (ligand)
chain: B1 chain with N1A, V11K
B31: hIL-15 V49R/S7D (ligand)
chain: B1 chain with S7D, V11K
B32: hIL-15 V49R/M109A (ligand)
chain: B1 chain with V11K, M109A
B33: hIL-15 V49R/L69A (ligand)
chain: B1 chain with V11K, L69A
B34: hIL-15 V49R/S7H (ligand)
chain: B1 chain with S7H, V11K
B35: hIL-15 V49R/L69T (ligand)
chain: B1 chain with V11K, L69T
B36: hIL-15 V49R/S7K (ligand)
chain: B1 chain with S7K, V11K
B37: hIL-15 V49R/N72A (ligand)
chain: B1 chain with V11K, N72A
B38: hIL-15 V49R/L69V (ligand)
chain: B1 chain with V11K, L69V
B39: hIL-15 V49R/N4Q (ligand)
chain: B1 chain with N4Q, V11K
B40: hIL-15 V49R/N4G (ligand)
chain: B1 chain with N4G, V11K
B41: hIL-15 V49R/N1T (ligand)
chain: B1 chain with N1T, V11K
B42: hIL-15 V49R/N1H (ligand)
chain: B1 chain with N1H, V11K
B43: hIL-15 V49R/N72S (ligand)
chain: B1 chain with V11K, N72S
B44: hIL-15 V49R/N1G (ligand)
chain: B1 chain with N1G, V11K
B45: hIL-15 V49R/N1D (ligand)
chain: B1 chain with N1D, V11K
B46: hIL-15 V49R/Q108S (ligand)
chain: B1 chain with V11K, Q108S
B47: hIL-15 V49R/N4H (ligand)
chain: B1 chain with N4H, V11K
B48: hIL-15 V49R/N4L (ligand)
chain: B1 chain with N4L, V11K
B49: hIL-15 V49R/N1E (ligand)
chain: B1 chain with N1E, V11K
B50: hIL-15 V49R/S7N (ligand)
chain: B1 chain with S7N, V11K
B51: hIL-15 V49R/L69D (ligand)
chain: B1 chain with V11K, L69D
B52: hIL-15 V49R/N72D (ligand)
chain: B1 chain with V11K, N72D

Target: T2, human IL-15Rα (human, UniProt Q13261 31-205, limits assumed)
T2 construct: also called hIL-15Rα; IL-15 receptor alpha
Assay: SPR, steady state

T2 sequence (Q13261 31-205 limits assumed): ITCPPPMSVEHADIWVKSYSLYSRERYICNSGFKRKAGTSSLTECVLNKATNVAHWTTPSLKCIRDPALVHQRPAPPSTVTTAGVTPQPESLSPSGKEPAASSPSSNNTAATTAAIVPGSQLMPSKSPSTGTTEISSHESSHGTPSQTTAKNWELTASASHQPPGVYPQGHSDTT

| Kd [nM] | Binder |
| --- | --- |
| 142 | B1 |
| 288 | B2 |
| 140 | B3 |
| 115 | B4 |
| 93.1 | B5 |
| 88.1 | B6 |
| 125 | B7 |
| 87.6 | B8 |
| 79.8 | B9 |
| 121 | B10 |
| 143 | B11 |
| 84 | B12 |
| 264 | B13 |
| 93.9 | B14 |
| 201 | B15 |
| 88.1 | B16 |
| 147 | B17 |
| 85.4 | B18 |
| 47.8 | B19 |
| 78.2 | B20 |
| 101 | B21 |
| 215 | B22 |
| 161 | B23 |
| 219 | B24 |
| 77 | B25 |
| 74.5 | B26 |

| Kd [nM] | Binder |
| --- | --- |
| 103 | B27 |
| 190 | B28 |
| 98 | B29 |
| 175 | B30 |
| 121 | B31 |
| 198 | B32 |
| 82.9 | B33 |
| 75.6 | B34 |
| 63.6 | B35 |
| 103 | B36 |
| 117 | B37 |
| 85.5 | B38 |
| 59.5 | B39 |
| 105 | B40 |
| 104 | B41 |
| 151 | B42 |
| 118 | B43 |
| 160 | B44 |
| 105 | B45 |
| 144 | B46 |
| 81.5 | B47 |
| 98.6 | B48 |
| 171 | B49 |
| 93.2 | B50 |
| 65.6 | B51 |
| 105 | B52 |

Target: T1, human IL-2Rβ
Assay: SPR, steady state

| Kd [nM] | Binder |
| --- | --- |
| 110 | B1 |
| 339 | B2 |
| 194 | B3 |
| > 500 | B4 |
| 306 | B5 |
| 233 | B6 |
| 215 | B7 |
| > 500 | B8 |
| 311 | B9 |
| > 500 | B10 |
| 438 | B11 |
| 220 | B12 |
| > 500 | B13 |
| > 500 | B14 |
| 193 | B15 |
| 215 | B16 |
| > 500 | B17 |
| 249 | B18 |
| > 1000 | B19 |
| > 500 | B20 |
| > 500 | B21 |
| > 500 | B22 |
| 462 | B23 |
| 143 | B24 |
| > 500 | B25 |
| > 1000 | B26 |

| Kd [nM] | Binder |
| --- | --- |
| 365 | B27 |
| 362 | B28 |
| > 500 | B29 |
| 398 | B30 |
| > 500 | B31 |
| > 500 | B32 |
| > 500 | B33 |
| 354 | B34 |
| > 1000 | B35 |
| > 500 | B36 |
| 148 | B37 |
| > 1000 | B38 |
| > 500 | B39 |
| > 500 | B40 |
| 249 | B41 |
| 235 | B42 |
| 182 | B43 |
| > 500 | B44 |
| 311 | B45 |
| 290 | B46 |
| 96.4 | B47 |
| 429 | B48 |
| 340 | B49 |
| > 500 | B50 |
| > 500 | B51 |
| 101 | B52 |
